The assay deals with recombinant SARS-CoV-2 S protein ectodomain (residues 14-1211), 2P, furin site mutated, foldon, 8XHis (SARS-CoV-2), P0DTC2. The experiment in a line: ELISA on coated antigen, anti-human IgG-HRP. To be noted: remark: other sources report otherwise. On the technique in general: ELISA stands for enzyme-linked immunosorbent assay.

B1: mAb 2H04 (antibody)
chain 1: EVQLQQSGAELVKPGASVKMSCKASGYTFTSYWITWVKQRPGQGLEWIGDIYPGSGSTKYNEKFRSEATLTVDTSSTTAYMQLSSLTSEDSAVYYCARWDFYGSRTFDYWGQGTTLTVSS
chain 2: DIVLTQSPAILSVSPGERVSFSCRASQNIGTIIHWYQQRTNGSPRLLIKYASESVSGIPSRFSGSGSGTDFTLSINSVESEDIADYYCQQSSSWPLTFGAGTKLELK
Turning to B1, the minimum positive concentration is less than 5 µg/mL.
